The text below walks through data of patent US7083949.

For this assay, the target named is T1, Protein A (UniProt P38507 37-477).
T1 construct: Precipitation reagent; also called Protein A-Sepharose
Put plainly: Protein A-Sepharose precipitation, anti-kappa western blot. A general note: Immunoblotting shows a protein as a band on a membrane.

Protocol: In a different set of experiments the ability of the ligand Traps to multimerize in the presence of ligand was tested.

B1: gp130-CH1•IL-6Rα-κ (other)
chain 1: ELLDPCGYISPESPVVQLHSNFTAVCVLKEKCMDYFHVNANYIVWKTNHFTIPKEQYTIINRTASSVTFTDIASLNIQLTCNILTFGQLEQNVYGITIISGLPPEKPKNLSCIVNEGKKMRCEWDGGRETHLETNFTLKSEWATHKFADCKAKRDTPTSCTVDYSTVYFVNIEVWVEAENALGKVTSDHINFDPVYKVKPNPPHNLSVINSEELSSILKLTWTNPSIKSVIILKYNIQYRTKDASTWSQIPPEDTASTRSSFTVQDLKPFTEYVFRIRCMKEDGKGYWSDWSEEASGITYEDRPSKAPSFWYKIDPSHTQGYRTVQLVWKTLPPFEANGKILDYEVTLTRWKSHLQNYTVNATKLTVNLTNDRYLATLTVRNLVGKSDAAVLTIPACDFQATHPVMDLKAFPKDNMLWVEWTTPRESVKKYILEWCVLSDKAPCITDWQQEDGTVHRTYLRGNLAESKCYLITVTPVYADGPGSPESIKAYLKQAPPSKGPTVRTKKVGKNEAVLEWDQLPVDVQNGFIRNYTIFYRTIIGNETAVNVDSSHTEYTLSSLTSDTLYMVRMAAYTDEGGKDGPEFTFTTPKFAQGEIESGGQGTLVTVSSASTKGPSVFPLAPSSKSTSGGTAALGCLVKDYFPEPVTVSWNSGALTSGVHTFPAVLQSSGLYSLSSVVTVPSSSLGTQTYICNVNHKPSNTKVDKKVEPKSCDKTHT
chain 2: LAPRRCPAQEVARGVLTSLPGDSVTLTCPGVEPEDNATVHWVLRKPAAGSHPSRWAGMGRRLLLRSVQLHDSGNYSCYRAGRPAGTVHLLVDVPPEEPQLSCFRKSPLSNVVCEWGPRSTPSLTTKAVLLVRKFQNSPAEDFQEPCQYSQESQKFSCQLAVPEGDSSFYIVSMCVASSVGSKFSKTQTFQGCGILQPDPPANITVTAVARNPRWLSVTWQDPHSWNSSFYRLRFELRYRAERSKTFTTWMVKDLQHHCVIHDAWSGLRHVVQLRAQEEFGQGEWSEWSPEAMGTPWTESRSPPAENEVSTPMQALTTNKDDDNILFRDSANATSLPVQDAGTVAAPSVFIFPPSDEQLKSGTASVVCLLNNFYPREAKVQWKVDNALQSGNSQESVTEQDSKDSTYSLSSTLTLSKADYEKHKVYACEVTHQGLSSPVTKSFNRGEC
notes: the experiment prints gp130-CH1; also called G16K
As for B1, the binding result is on record as “no binding”.
